Results reported in patent US20180057589A1.

Assays:
[1] = molecular target: human Notch1 NRR protein (human) (UniProt P46531); test: SPR
[2] = molecular target: mouse Notch1 NRR protein (mouse) (UniProt Q01705); test: SPR
[3] = molecular target: Notch1 on stably transfected NIH-3T3 cells; test: cell-based or functional assay
[4] = molecular target: human Notch1 NRR protein (human) (UniProt P46531); test: ELISA on captured Flag-tagged NRR protein
[5] = molecular target: mouse Notch1 NRR protein (mouse) (UniProt Q01705); test: ELISA on captured Flag-tagged NRR protein
[6] = molecular target: N-myc-Notch1 on K1-CHO cells; test: FACS dot plot α-Myc (PE) against α-NRR1 (FITC), K1-CHO myc-N1 cells, +Dox, panel 2 (other quadrants: upper left 17.1, lower left 26.2, lower right 0.077)
[7] = molecular target: N-myc-Notch2 on K1-CHO cells; test: FACS dot plot α-Myc (PE) against α-NRR1 (FITC), K1-CHO myc-N2 cells, +Dox, panel 3 (other quadrants: upper left 58.6, lower left 41.3, lower right 0.026)
[8] = molecular target: hamster Notch2, endogenous on K1-CHO cells (hamster); test: FACS dot plot α-Myc (PE) against α-NRR1 (FITC), untransfected K1-CHO cells, +Dox, panel 1 (other quadrants: upper left 0.15, upper right 0.034, lower left 99.7)
[9] = molecular target: hamster Notch2, endogenous on K1-CHO cells (hamster); test: FACS dot plot α-Myc (PE) against α-NRR1 (FITC), untransfected K1-CHO cells, -Dox, panel 4 (other quadrants: upper left 0.13, upper right 0.041, lower left 99.7)
[10] = molecular target: N-myc-Notch1 on K1-CHO cells; test: FACS dot plot α-Myc (PE) against α-NRR1 (FITC), K1-CHO myc-N1 cells, -Dox (transgene not induced), panel 5 (other quadrants: upper left 0.72, lower left 99, lower right 0.14)
[11] = molecular target: N-myc-Notch2 on K1-CHO cells; test: FACS dot plot α-Myc (PE) against α-NRR1 (FITC), K1-CHO myc-N2 cells, -Dox (leaky expression per the text), panel 6 (other quadrants: upper left 18, lower left 81.8, lower right 0.1)

Sequence of mouse Notch1 NRR protein (mouse) (Q01705 1446-1723 limits assumed): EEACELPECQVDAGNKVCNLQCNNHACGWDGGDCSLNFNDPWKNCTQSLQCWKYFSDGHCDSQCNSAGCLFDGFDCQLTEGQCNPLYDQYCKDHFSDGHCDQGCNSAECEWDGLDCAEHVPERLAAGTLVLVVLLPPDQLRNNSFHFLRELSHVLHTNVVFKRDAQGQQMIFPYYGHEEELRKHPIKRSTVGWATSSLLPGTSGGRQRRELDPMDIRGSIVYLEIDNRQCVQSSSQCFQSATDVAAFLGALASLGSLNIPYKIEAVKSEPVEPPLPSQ
Sequence of human Notch1 NRR protein (human) (P46531 1446-1733 limits assumed): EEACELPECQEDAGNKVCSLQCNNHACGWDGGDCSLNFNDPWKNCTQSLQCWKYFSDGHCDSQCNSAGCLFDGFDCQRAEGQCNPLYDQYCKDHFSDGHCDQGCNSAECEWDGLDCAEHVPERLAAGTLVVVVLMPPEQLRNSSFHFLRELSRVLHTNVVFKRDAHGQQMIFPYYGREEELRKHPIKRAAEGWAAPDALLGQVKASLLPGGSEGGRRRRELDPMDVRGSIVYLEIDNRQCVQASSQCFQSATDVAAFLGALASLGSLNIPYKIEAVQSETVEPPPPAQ

## anti-NRR1 (antibody)
[1]
  Kd: 3 nM
[2]
  Kd: 3 nM
[3]
  Notch reporter (luciferase) in Jag1 co-culture assay: antibody concentration for complete inhibition of Notch1 signaling: 80 to 400 ng/mL
[4]
  EC50: 0.1 µg/mL
[5]
  EC50: 0.1 µg/mL
[6]
  % of cells in the α-Myc-positive / α-NRR1-positive quadrant (upper right): 56.6%
[7]
  % of cells in the α-Myc-positive / α-NRR1-positive quadrant (upper right): 0.064%
[8]
  % of cells in the α-Myc-negative / α-NRR1-positive quadrant (lower right): 0.082%
[9]
  % of cells in the α-Myc-negative / α-NRR1-positive quadrant (lower right): 0.12%
[10]
  % of cells in the α-Myc-positive / α-NRR1-positive quadrant (upper right): 0.097%
[11]
  % of cells in the α-Myc-positive / α-NRR1-positive quadrant (upper right): 0.13%
